Data from patent US20020143152A1, “Polypeptides, their production and use” (priority 1997, published 2002).
Entries after “also recorded” stand apart in the source; their conditions may differ. Non-standard residues stand in square brackets, D forms with d. No end group written: not given here. Met(O) = CS(=O)CC[C@H](N)C(=O)O

molecular target: T1, full-length human pituitary G protein-coupled receptor protein (phGR3) expressed in CHO-19P2 cells (Homo sapiens, UniProt P49683); test: release of [3H] arachidonic acid metabolites from CHO-19P2 cells; format: cell-based; details: synthetic peptide diluted with 0.05% BSA-HBSS to 10^−12M-10^−6M; radioactivity of [3H] arachidonic acid metabolites released in supernatant
T1 construct: a ligation reaction was carried out to construct a full-length receptor protein expression plasmid pAKKO-19P2; expressed in transfected cells
T1 sequence (P49683 1-370): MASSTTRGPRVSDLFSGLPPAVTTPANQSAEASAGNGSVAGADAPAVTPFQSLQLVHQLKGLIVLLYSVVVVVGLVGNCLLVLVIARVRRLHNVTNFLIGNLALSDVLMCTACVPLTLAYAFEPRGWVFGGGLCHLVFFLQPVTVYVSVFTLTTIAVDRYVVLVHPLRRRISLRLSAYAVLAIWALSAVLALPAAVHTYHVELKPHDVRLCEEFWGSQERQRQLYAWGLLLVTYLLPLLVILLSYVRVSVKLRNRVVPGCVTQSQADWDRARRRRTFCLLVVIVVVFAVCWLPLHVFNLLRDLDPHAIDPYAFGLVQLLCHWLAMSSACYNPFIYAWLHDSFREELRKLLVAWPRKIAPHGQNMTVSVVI
Experimental: The full-length receptor protein-expressed CHO cells and mock CHO cells were seeded in a 24-well plate, 0.5×10^5 cells/well, and cultured for 24 hours. Then, [^3H] arachidonic acid was added at a final concentration of 0.25μCi/well. Sixteen (16) hours after addition of [^3H] arachidonic acid, the cells were rinsed with 0.05% BSA-HBSS and the above-mentioned crude peptide fraction was added, 400 μl/well. The mixture was incubated at 37 C. for 30 minutes and a 300 μl portion of the reaction mixture (400 μl) was added to a scintillator (4 ml) and the amount of [^3H] arachidonic acid metabolite released into the reaction mixture was determined with a scintillation counter. As a result, an arachidonic acid metabolite-releasing activity specific to the full-length receptor protein expressed CHO cells (CHO-19P2) was detected in the 30% CH3CN fraction of the eluate FIG. 16.
The activity of the peptide (19P2-L31) synthesized in Example 21 to specifically release arachidonic acid metabolites from CHO-19P2 cells was assayed in the same manner as Example 11. The synthetic peptide was dissolved in degassed distilled water at a concentration of 10^−3M and diluted with 0.05% BSA-HBSS and the activity to promote release of arachidonic acid metabolites from CHO-19P2 cells at each concentration was assayed using the amount of [^3H] arachidonic acid metabolites as the indicator.
The activity of the synthetic equivalent (19P2- L20) of natural peptide P-2 as synthesized in Example 23 to specifically promote release of arachidonic acid metabolites from CHO-19P2 cells was determined as in Example 11. Thus, the synthetic peptide was dissolved in degassed distilled water at a final concentration of 10^−3M and this solution was serially diluted with 0.05% BAS-HBSS. The activity to specifically promote release of arachidonic acid metabolites from CHO-19P2 cells at each concentration was assayed using the amount of [^3H] arachidonic acid metabolites as the indicator.

Q: With “Ser-Arg-Ala-His-Gln-His-Ser-Met(O)-Glu-Ile-Arg-Thr-Pro-Asp-Ile-Asn-Pro-Ala-Trp-Tyr-Ala-Gly-Arg-Gly-Ile-Arg-Pro-Val-Gly-Arg-Phe-NH2 (SRAHQHS[Met(O)]EIRTPDINPAWYAGRGIRPVGRF-NH2; N-terminus assumed; SMILES CC[C@H](C)[C@H](NC(=O)CNC(=O)[C@H](CCCNC(=N)N)NC(=O)CNC(=O)[C@H](C)NC(=O)[C@H](Cc1ccc(O)cc1)NC(=O)[C@H](Cc1c[nH]c2ccccc12)NC(=O)[C@H](C)NC(=O)[C@@H]1CCCN1C(=O)[C@H](CC(N)=O)NC(=O)[C@@H](NC(=O)[C@H](CC(=O)O)NC(=O)[C@@H]1CCCN1C(=O)[C@@H](NC(=O)[C@H](CCCNC(=N)N)NC(=O)[C@@H](NC(=O)[C@H](CCC(=O)O)NC(=O)[C@H](CCS(C)=O)NC(=O)[C@H](CO)NC(=O)[C@H](Cc1c[nH]cn1)NC(=O)[C@H](CCC(N)=O)NC(=O)[C@H](Cc1c[nH]cn1)NC(=O)[C@H](C)NC(=O)[C@H](CCCNC(=N)N)NC(=O)[C@@H](N)CO)[C@@H](C)CC)[C@@H](C)O)[C@@H](C)CC)C(=O)N[C@@H](CCCNC(=N)N)C(=O)N1CCC[C@H]1C(=O)N[C@H](C(=O)NCC(=O)N[C@@H](CCCNC(=N)N)C(=O)N[C@@H](Cc1ccccc1)C(N)=O)C(C)C) [19P2-L31(O), methionine-oxidation product of 19P2-L31]” as the substance, how does the “activity to specifically promote release of arachidonic acid metabolites from CHO-19P2 cells” value (“activity to specifically promote release” for short) read?
A: The value was “equivalent to the activity of 19P2-L31; also recorded: found in a dose-dependent manner”.

Q: How did the “activity to specifically promote release” value turn out when “Thr-Pro-Asp-Ile-Asn-Pro-Ala-Trp-Tyr-Ala-Gly-Arg-Gly-Ile-Arg-Pro-Val-Gly-Arg-Phe-NH2 (TPDINPAWYAGRGIRPVGRF-NH2) [19P2-L20]” was run?
A: The value was “concentration-dependent arachidonic acid metabolite-releasing activity was detected over the range of 10^−12 -10^−6M in nearly the same degree as 19P2-L31; also recorded: found in a dose-dependent manner”.

Q: With “Ser-Arg-Ala-His-Gln-His-Ser-Met-Glu-Ile-Arg-Thr-Pro-Asp-Ile-Asn-Pro-Ala-Trp-Tyr-Ala-Gly-Arg-Gly-Ile-Arg-Pro-Val-Gly-Arg-Phe-NH2 (SRAHQHSMEIRTPDINPAWYAGRGIRPVGRF-NH2) [19P2-L31]” as the substance, how does the “activity to specifically promote release” value read?
A: Its value is “concentration-dependent arachidonic acid metabolite-releasing activity was detected over the range of 10^−12M -10^−6M; also recorded: found in a concentration-dependent manner”.
